# From patent US12329806B2, “Compound for modulating rlr, tlr, oas and/or oncostatin m pathways, use thereof for preparing a medicine, composition, method for modulating said pathways and method of treatment” (Instituto Butantan, priority 2018, dated 2025)
# B1: Amblyomin-X: recombinant Kunitz type protein identified in a cDNA library of Amblyomma sculptum tick salivary glands (protein)
# chain: MRQLAVLALVIFTGMCVESQSANSKAVCNLPKLAGDETCSNKTEIRWYYNGTACEAFIFKGCGGNDNNFDRVDDCQRLCEEQTHFHFESPKLICFKVQDYWILNDIMKKNLTGISLKSEEEDADSGEID
# modifications: Amblyomin-X
# notes: recombinant Kunitz type protein identified in a cDNA library of Amblyomma sculptum tick salivary glands
# Test system: Equine melanoma tumors
# Assay: RNA-Seq transcriptomic analysis (DEGs, EdgeR) of treated equine melanoma tumors excised 6 h and 12 h after injection
# Assay type: in vivo, Equus caballus
# Conditions: for SELE expression, average / SELE expression, median: RNA-Seq
# Description: Equine melanoma tumors were used in experiments with the administration of the compound of the invention, for transcriptomic analysis at different points in time. This translational experiment was carried out at Sao Joaquim Farm (SP) and the samples were transported to the Instituto Butantan, in the city of Sao Paulo. The experiment was designed with non-treated control samples at 0 h (PBS) and the treated tumors were excised 6 h and 12 h after the injection of 1 mg of polypeptide per kg of tumor. For each time point, two tumors were removed from three different animals, producing six tumors per time point. All 18 cDNA libraries were prepared following Illumina's TruSeq® RNA Preparation Kit Kits v2 protocol, and then sequenced using HiSeq 1500 Illumina technology, generating 2×100 bp chain-specific paired readings. The raw sequencing readings had the contaminants removed with bowtie2 2.2.5, and then trimmomatic was used for quality control of the sequences, to cut and remove readings with regions of low complexity and enriched with homopolymers, poly-A/T/N tails, low quality adapter strings and bases, with the fastq-mcf 1.04.662 software. The readings were filtered if more than 90% of the readings correspond to regions of homopolymer or of low complexity. Subsequently, cut if the average quality score was less than 25 in a window size equal to 15. After cutting, all readings less than 40 bp were discarded.
# Total RNA was isolated from cells grown with Trizol (Ambion, Life Technologies) and purified with a Mini RNAspin kit (GE Healthcare) according to the manufacturer's instructions, with prolonged treatment with DNase I for 1 h.
# RNA quality was assessed with an Agilent 2100 Bioanalyzer RNA Pico assay. RNA was quantified using the Rib-Green Quant-iT and RNA reagent kit (Invitrogen, Life Technologies). The messenger RNA (mRNA) was isolated and used to prepare the complementary DNA (cDNA) libraries following the instructions of the TruSeq RNA Sample Prep Kit V2 (Illumina, San Diego, Calif.). Briefly, the mRNA was isolated with oligo-dT and purified. Then, the mRNA was fragmented by heating to 94° C. (4 min) in fragmentation buffer. The double-stranded cDNA was synthesized, repaired at the end and tail A. The sequencing adapters were then attached to the cDNA fragments, according to the manufacturer's protocol. The cDNA fragments were enriched after 15 rounds of PCR amplification. The quality control of the library was assessed by size distribution of the cDNA libraries measured using 2100 Bioanalyzer with DNA1000 assay (Agilent Technologies) and a StepOnePlus real-time PCR system from ABI were used to quantify the sample library before sequencing. The cDNA library was sequenced on the Illumina HiSeq 1500 System, in a final flow cell paired with Rapid in a 200 pair strategy of 2-101 bp pairing strategy.
# The in-silico analysis of RNA-Seq comprises several quality steps and transcriptomic quantification algorithms that are understood in the present invention as “pipeline”. (FIG. 19). The quality check was performed using FastQC3. Hisat214 was used to align readings against the horse's reference genome (Equus caballus) (annotation version 89). To map and quantify transcriptions, the feature Counts was used, resulting in a table of genetic IDs versus samples with raw reading counts. Then, differentially expressed genes (DEGs) were calculated using the EdgeR package. Genes with less than one count per million (CPM) were filtered out. The DEGs were calculated by crossing the sample values of a) 6 h after treatment (6 h)×control (0 h); b) 12 h after treatment (12 h)×control; and also, c) 12 h×6 h. DEGs are defined as an absolute value of log 2 fold change between two groups (LFC)>1 and false discovery rate (FDR)<0.05. […]
# [1] = RNA-seq median expression, 12 h
molecule,measurement,setting,value
B1,"SELE expression, average",6 h after treatment,7.15 CPM
same,"SELE expression, median",6 h after treatment,4.56 CPM
same,"SELE expression, average",12 h after treatment,4.85 CPM
same,"SELE expression, median",12 h after treatment,5.63 CPM
same,"median2, gene ACTN1","RNA-seq median expression, 6 h",153.3001 CPM
same,"median2, gene BCL3","RNA-seq median expression, 6 h",46.57 CPM
same,"median2, gene BIRC3","RNA-seq median expression, 6 h",47.3192 CPM
same,"median2, gene CAD","RNA-seq median expression, 6 h",52.82 CPM
same,"median2, gene CCL2","RNA-seq median expression, 6 h",171.527 CPM
same,"median2, gene CDO1","RNA-seq median expression, 6 h",22.45 CPM
same,"median2, gene CTSL","RNA-seq median expression, 6 h",34.0817 CPM
same,"median2, gene CXCL6","RNA-seq median expression, 6 h",6.189 CPM
same,"median2, gene DDX58","RNA-seq median expression, 6 h",22.55 CPM
same,"median2, gene F12","RNA-seq median expression, 6 h",4.891 CPM
same,"median2, gene FOSL1","RNA-seq median expression, 6 h",14.18 CPM
same,"median2, gene FSCN1","RNA-seq median expression, 6 h",97.19 CPM
same,"median2, gene HMOX1","RNA-seq median expression, 6 h",99.11 CPM
same,"median2, gene HSPA6","RNA-seq median expression, 6 h",15.93 CPM
same,"median2, gene IFI35","RNA-seq median expression, 6 h",48.07 CPM
same,"median2, gene IFIH1","RNA-seq median expression, 6 h",13.29 CPM
same,"median2, gene IFIT1","RNA-seq median expression, 6 h",28.13 CPM
same,"median2, gene IL1B","RNA-seq median expression, 6 h",20.23 CPM
same,"median2, gene IL1RN","RNA-seq median expression, 6 h",120.3935 CPM
same,"median2, gene IL13RA1","RNA-seq median expression, 6 h",29.3 CPM
same,"median2, gene IRF9","RNA-seq median expression, 6 h",72.39 CPM
same,"median2, gene ITGA1","RNA-seq median expression, 6 h",7.06 CPM
same,"median2, gene MYH1","RNA-seq median expression, 6 h",0 CPM
same,"median2, gene MYH3","RNA-seq median expression, 6 h",1.418 CPM
same,"median2, gene MYL2","RNA-seq median expression, 6 h",0 CPM
same,"median2, gene MYLPF","RNA-seq median expression, 6 h",1.314 CPM
same,"median2, gene NTNG1","RNA-seq median expression, 6 h",1.059 CPM
same,"median2, gene OAS2","RNA-seq median expression, 6 h",34.26 CPM
same,"median2, gene PARP9","RNA-seq median expression, 6 h",16.34 CPM
same,"median2, gene PER1","RNA-seq median expression, 6 h",32.08 CPM
same,"median2, gene PIK3R6","RNA-seq median expression, 6 h",5.162 CPM
same,"median2, gene RUNX1","RNA-seq median expression, 6 h",8.949 CPM
same,"median2, gene SAA1","RNA-seq median expression, 6 h",7.68 CPM
same,"median2, gene SELP","RNA-seq median expression, 6 h",22.34 CPM
same,"median2, gene SLPI","RNA-seq median expression, 6 h",230.2294 CPM
same,"median2, gene SOCS3","RNA-seq median expression, 6 h",12.21 CPM
same,"median2, gene STAT1","RNA-seq median expression, 6 h",76.48 CPM
same,"median2, gene TAT","RNA-seq median expression, 6 h",1.235 CPM
same,"median2, gene TEAD4","RNA-seq median expression, 6 h",21.64 CPM
same,"median2, gene THBS1","RNA-seq median expression, 6 h",43.5 CPM
same,"median2, gene TLR2","RNA-seq median expression, 6 h",59.58 CPM
same,"median2, gene TREM1","RNA-seq median expression, 6 h",31.36 CPM
same,"median3, gene ACTN1",[1],165.3412 CPM
same,"median3, gene BCL3",[1],39.97 CPM
same,"median3, gene BIRC3",[1],47.38 CPM
same,"median3, gene CAD",[1],50.34 CPM
same,"median3, gene CCL2",[1],418.8519 CPM
same,"median3, gene CDO1",[1],12.71 CPM
same,"median3, gene CTSL",[1],33.8889 CPM
same,"median3, gene CXCL6",[1],1.108 CPM
same,"median3, gene DDX58",[1],31.9 CPM
same,"median3, gene F12",[1],8.671 CPM
same,"median3, gene FOSL1",[1],11.46 CPM
same,"median3, gene FSCN1",[1],152.3466 CPM
same,"median3, gene HMOX1",[1],105.6427 CPM
same,"median3, gene HSPA6",[1],53.79 CPM
same,"median3, gene IFI35",[1],66.19 CPM
same,"median3, gene IFIH1",[1],27.95 CPM
same,"median3, gene IFIT1",[1],34.11 CPM
same,"median3, gene IL1B",[1],10.07 CPM
same,"median3, gene IL1RN",[1],118.3058 CPM
same,"median3, gene IL13RA1",[1],23.98 CPM
same,"median3, gene IRF9",[1],85.24 CPM
same,"median3, gene ITGA1",[1],6.155 CPM
same,"median3, gene MYH1",[1],0 CPM
same,"median3, gene MYH3",[1],1.817 CPM
same,"median3, gene MYL2",[1],0 CPM
same,"median3, gene MYLPF",[1],1.629 CPM
same,"median3, gene NTNG1",[1],0.744 CPM
same,"median3, gene OAS2",[1],82.84 CPM
same,"median3, gene PARP9",[1],18.56 CPM
same,"median3, gene PER1",[1],39.99 CPM
same,"median3, gene PIK3R6",[1],4.433 CPM
same,"median3, gene RUNX1",[1],9.266 CPM
same,"median3, gene SAA1",[1],11.7 CPM
same,"median3, gene SELP",[1],20.58 CPM
same,"median3, gene SLPI",[1],620.7695 CPM
same,"median3, gene SOCS3",[1],11.57 CPM
same,"median3, gene STAT1",[1],83.64 CPM
same,"median3, gene TAT",[1],9.52 CPM
same,"median3, gene TEAD4",[1],39.12 CPM
same,"median3, gene THBS1",[1],31.32 CPM
same,"median3, gene TLR2",[1],93.64 CPM
same,"median3, gene TREM1",[1],24.25 CPM
same,"logFC6, gene ACTN1","RNA-seq, 6 h after treatment",1.003
same,"logFC6, gene BCL3","RNA-seq, 6 h after treatment",1.936
same,"logFC6, gene BIRC3","RNA-seq, 6 h after treatment",1.275
same,"logFC6, gene CAD","RNA-seq, 6 h after treatment",1.227
same,"logFC6, gene CCL2","RNA-seq, 6 h after treatment",2.79
same,"logFC6, gene CDO1","RNA-seq, 6 h after treatment",−1.785
same,"logFC6, gene CTSL","RNA-seq, 6 h after treatment",1.376
same,"logFC6, gene CXCL6","RNA-seq, 6 h after treatment",5.945
same,"logFC6, gene DDX58","RNA-seq, 6 h after treatment",1.434
same,"logFC6, gene F12","RNA-seq, 6 h after treatment",2.559
same,"logFC6, gene FOSL1","RNA-seq, 6 h after treatment",4.578
same,"logFC6, gene FSCN1","RNA-seq, 6 h after treatment",1.457
same,"logFC6, gene HMOX1","RNA-seq, 6 h after treatment",1.443
same,"logFC6, gene HSPA6","RNA-seq, 6 h after treatment",5.376
same,"logFC6, gene IFI35","RNA-seq, 6 h after treatment",1.513
